Assay results: patent publication US20200377609A1

Legend:
[1] = biological target: anti-BCMA CAR; assay: flow cytometry; clonal supernatant on anti-BCMA CAR T cells, FITC goat anti-rabbit F(ab')2 detection
[2] = biological target: CAR-2; assay: flow cytometry; clonal supernatant on control CAR-2 T cells, FITC goat anti-rabbit F(ab')2 detection
[3] = biological target: CAR-3; assay: flow cytometry; clonal supernatant on control CAR-3 T cells, FITC goat anti-rabbit F(ab')2 detection
[4] = biological target: BCMA-AM1; assay: flow cytometry; supernatant on CAR-transduced Jurkat cells (BCMA-AM1), FITC goat anti-rabbit F(ab')2 detection
[5] = biological target: BCMA-AM2; assay: flow cytometry; supernatant on CAR-transduced Jurkat cells (BCMA-AM2), FITC goat anti-rabbit F(ab')2 detection
[6] = biological target: anti-BCMA CAR; assay: flow cytometry; supernatant on CAR-transduced Jurkat cells (panel BCMA WT), FITC goat anti-rabbit F(ab')2 detection
[7] = biological target: BCMA-AM1; assay: flow cytometry; supernatant on CAR-transduced Jurkat cells (panel BCMA-AM1), FITC goat anti-rabbit F(ab')2 detection
[8] = biological target: BCMA-AM2; assay: flow cytometry; supernatant on CAR-transduced Jurkat cells (panel BCMA-AM2), FITC goat anti-rabbit F(ab')2 detection

B1: Clone 154-7 (antibody, V domains shown)
VH: QSLEESGGDLVKPEGSLTLTCTASGFSFSSSYWICWVRQAPGKGLEWIACIYTANSGRTVYASWAKGRFTISKTSSTTVTLQLPSLTAADTATYFCARDIYVLTTTDNLWGPGTLVTVSS
VL: ALVMTQAPSPVSAAVGGTVTISCQASQPIGSDLVWYQQKPGQPPKLLIYYASDLASGVPSRFKGSGSGTRFTLTISGVECDDAATYYCAGYKNYDHDDCGFGGGTEVVVK
CAR+ (gate frequency) [1]: 47.1
CAR+ (gate frequency) [2]: 0.067
CAR+ (gate frequency) [3]: 0.15

B2: Clone 18-4 (antibody, V domains shown)
VH: QERLVESGGGLVQPEGSLTLTCTASGLTLSNYWLCWVRQAPGKGLEWIACIYTGNYGSAYYANWVKGRFTISKASSTTVTLQMTSLTAADTATYFCARDPYTLTNVDVLWGPGTLVTVSS
VL: ALVMTQTPSPVSAAVGGTVTINCQASQSIGSDLAWYQQRPGQPPKLLIYWASTLASGVPSRFSGSGSGTQFTLTISDLECDDAATYYCTGYISYNDDNAAFGGGTEVVVK
CAR+ (gate frequency) [1]: 41.7
CAR+ (gate frequency) [2]: 0.09
CAR+ (gate frequency) [3]: 1.81

B3: Clone 137-2 (antibody, V domains shown)
VH: QEQLVESGGGLVQPEGSLTLTCTASGFSFSLSNWICWVRQAPGKGLEWVACIYVSVSGNTRYASWAKGRFTISETSSTTVTLQMTGLTAADTATYFCARDPFSLVSVDRSLWGPGTLVTVSS
VL: ALVMTQTPSPVSAAVGGTVTINCQASQSIGSDLSWFQQKPGQPPKLLMYWASSLASGVPSRFKGSGSGTQFTLTISDLECDDAATYYCAGYVNYNNDDAAFGGGTEVVVK
CAR+ (gate frequency) [1]: 42.4
CAR+ (gate frequency) [2]: 0.11
CAR+ (gate frequency) [3]: 0.093

B4: Clone 77-9 (antibody, V domains shown)
VH: QSLEESGGALVKPGASLALTCTASGFSFNLRHYMCWVRQAPGKGLEWIGCVHGGSSGGTYYASWTKGRFTISKTSSTTVTLQMTSLTAADTATYFCAREDDIMMAGEFSLWGPGTLVTVSS
VL: DIVMTQTPSSVEASVGGTVTIKCQASEDIESYLVWYQQKPGQPPKLLIYQASNLASGVPSRFYGSGSGTQFTLTISDLECADASTYYCQSYVEGGVDVVFGGGTEVVVK
FITC+ (gate frequency) [4]: 82.4
FITC+ (gate frequency) [5]: 91.6

B5: Clone 83-3 (antibody, V domains shown)
VH: QSLEESGGDLVKPGASLTLTCTASGFSFNLRHYMCWVRQAPGKGLEWIGCVHGGSSSGTYYASWAKGRFTISKTSSTTVTLQMTSLTAADTATYFCTREDDIMMAGEFGLWGPGTLVTVSS
VL: DIVMTQTPSSVSEPVGGTVTIKCQASEDIESYLVWYQQKPGQPPKLLIYQASNLASGVPSRFSGSGSGTEYTLTISDLECADAATYYCQSYIEGGVDVVFGGGTEVVVK
FITC+ (gate frequency) [4]: 83.4
FITC+ (gate frequency) [5]: 90.2

B6: Clone 89-10 (antibody, V domains shown)
V domain 1: QEQLVESRGGLVKPGGSLTLTCKASGFSFSTGYYACWVRQAPGKGLELSACVDTGSGDTFYASWARGRFTISKTSSSTVTLQMTSLTVADTATYFCARTALVMTDFYFNLWGPGTLTTVSS
V domain 2: ALVMTQTPASVEAAVGGTVTINCQASQWISNELSWYQQKPGQPPKLLIYLASTLASGVPSRFKGSGSGTEFTLTISDLECADAATYYCQQGYNIGHLDNAFGGGTEVVVK
FITC+ (gate frequency) [4]: 82.7
FITC+ (gate frequency) [5]: 0.042

B7: Clone 63-1 (antibody, V domains shown)
VH: QEQLEESGGDLVKPGASLTLTCTASGFSFSSGYWICWVRQAPGKGLEWIACIYTRSGGSTHYASWAKGRFTTSKTSSTTVTLQMTSLTAADMATYFCARDPYVLSAGPDNVLWGPGTLVTVSS
VL: ALVMTQTPSPVSAAVGGTVTINCQASESIGSDLGWYQQKPGQPPKFLIYWASTLVSGVPSRFEGSGSGTQFTLTISDLECDDAATYYCAGYESLSNDGNAFGGGTEVVVK
CAR+ (gate frequency) [1]: 58.2
CAR+ (gate frequency) [2]: 0.1
CAR+ (gate frequency) [3]: 0.14

B8: Clone 9-1 (antibody, V domains shown)
VH: QQQLEESGGGLVKPGGTLTLTCTASGFSFSSGQWMCWVRQAPGKGLELIACIYTSAGGSTHYASWATGRFTISKTSSTTVTLQMTSLTAADTATYFCARDPYLLSAGPDNNLWGPGTLVAVSS
VL: ALVMTQTPSPVSAAVGGTVTINCQASQSIGSDFTWWQQKPGQPPKLLIYWASTLASGVSSRFKGSGSGTQFTLTISDLECDDAATYYCAGYVSYSDDGNAFGGGTEVVVK
CAR+ (gate frequency) [1]: 60.9
CAR+ (gate frequency) [2]: 0.18
CAR+ (gate frequency) [3]: 0.11
FITC+ (gate frequency) [6]: 75.2
FITC+ (gate frequency) [7]: 0.14
FITC+ (gate frequency) [8]: 95.3

B9: Clone 9-9 (antibody, V domains shown)
VH: QQQLEESGGGLVKPGGTLTLTCTASGFSFSSGQRMCWVRQAPGKGLELIACIYTSAGGSTHYASWATGRFTISKTSSTTVTLQMTSLTAADTATYFCARDPYLLSAGPDNNLWGPGTLVAVSS
VL: ALVMTQTPSPVSAAVGGTVTINCQASQSIGSDFTWWQQKPGQPPKLLIYWASTLASGVSSRFKGSGSGTQFTLTISDLECDDAATYYCAGYVSYSDDGNAFGGGTEVVVK
CAR+ (gate frequency) [1]: 51.8
CAR+ (gate frequency) [2]: 0.067
CAR+ (gate frequency) [3]: 0.13

B10: Clone 80-7 (antibody, V domains shown)
VH: QEQLEESGGDLVKPEGSLTLTCTASGFSFSSAYWICWVRQVPGKGLEWIACIYTGSGGRSHYASWAKGRFTISKTSSTTVTLQMTSLTAADTATYFCARDPYILSAGPDNVLWGPGTLVTVSS
VL: ALVMTQTPSPVSAAVGGTVTINCQASQSIGSDLGWFQQKPGQPPKLLIYWASTLASGVPSRFEGSGSGTQFTLTISDLECDDAATYYCAGYESLSNDGNAFGGGTEVVVK
CAR+ (gate frequency) [1]: 31.5
CAR+ (gate frequency) [2]: 0.22
CAR+ (gate frequency) [3]: 0.067
